The labels stand for the following.
B1: bZIP63 (protoplast two-hybrid fusion) [Arabidopsis thaliana] / bZIP11 (protoplast two-hybrid fusion) [Arabidopsis thaliana] (parent)
chain 1: MEKVFSDEEISGNHHWSVNGMTSLNRSASEWAFNRFIQESSAAADDGESTTACGVSVSSPPNVPVDSEEYRAFLKSKLNLACAAVAMKRGTFIKPQDTSGRSDNGGANESEQASLASSKATPMMSSAITSGSELSGDEEEADGETNMNPTNVKRVKRMLSNRESARRSRRRKQAHLSELETQVSQLRVENSKLMKGLTDVTQTFNDASVENRVLKANIETLRAKVKMAEETVKRLTGFNPMFHNMPQIVSTVSLPSETSNSPDTTSSQVTTPEIISSGNKGKALIGCKMNRTASMRRVESLEHLQKRIRSVGDQ
chain 2: MESSSSGTTSSTIQTSSGSEESLMEQRKRKRMLSNRESARRSRMKKQKLLDDLTAQVNHLKKENTEIVTSVSITTQHYLTVEAENSVLRAQLDELNHRLQSLNDIIEFLDSSNNNNNNNMGMCSNPLVGLECDDFFVNQMNMSYIMNQPLMASSDALMY
B2: bZIP63 (protoplast two-hybrid fusion) [Arabidopsis thaliana] / bZIP63 (protoplast two-hybrid fusion) [Arabidopsis thaliana] (parent)
chain 1: B1 chain 1
chain 2: B1 chain 1

The variants in assay [1] derive from B1. The assay can be described thus: protoplast two-hybrid (P2H) assay. The following applies: for response (% of signal with wt bZIP63 and AKIN10): - AKIN10 (no co-transformation), parent: 8, read off a plot; for percent of parent: with bZIP11 (protoplast two-hybrid fusion) [Arabidopsis thaliana], + AKIN10 co-transformation, parent: 100, read off a plot.
Variants of B2 are the subject of assay [2]. Description: protoplast two-hybrid (P2H) assay. The following applies: for response (% of signal with wt bZIP63 and AKIN10): - AKIN10 (no co-transformation), parent: 13, read off a plot; for percent of parent: with bZIP63 (protoplast two-hybrid fusion) [Arabidopsis thaliana], + AKIN10 co-transformation, parent: 100, read off a plot.

On to chain 1 S29A, for which, in assay [1], the response (% of signal with wt bZIP63 and AKIN10) turned out to be 11; the percent of parent was determined as 32%.

Turning to chain 1 S300A, in assay [1], the response (% of signal with wt bZIP63 and AKIN10) was found to be 13; the percent of parent is 100%.

Consider chain 1 S294A, for which, in assay [1], the response (% of signal with wt bZIP63 and AKIN10) turned out to be 7; the percent of parent came out at 110%.

For the variant chain 1 S294A S300A, in assay [1], the response (% of signal with wt bZIP63 and AKIN10) came to 10; the percent of parent turned out to be 110%.

For the variant chain 1 S29A S294A S300A, in assay [1], the response (% of signal with wt bZIP63 and AKIN10) turned out to be 7.5; the percent of parent worked out at 27%.

With chain 1 S29A, in assay [2], the response (% of signal with wt bZIP63 and AKIN10) came out at 7; the percent of parent worked out at 44%.

Consider chain 1 S294A, for which, in assay [2], the response (% of signal with wt bZIP63 and AKIN10) turned out to be 10; the percent of parent was 75%.

Consider chain 1 S300A, for which, in assay [2], the response (% of signal with wt bZIP63 and AKIN10) is 8; the percent of parent stood at 79%.

As for chain 1 S29A S294A S300A, the response (% of signal with wt bZIP63 and AKIN10) in assay [2] was 11.

For chain 1 S294A S300A, in assay [2], the response (% of signal with wt bZIP63 and AKIN10) worked out at 10; the percent of parent amounted to 67%.

The values above are taken from publication PMC4558565.
